These results are taken from article PMC4856307, “A Hidden Transhydrogen Activity of a FMN-Bound Diaphorase under Anaerobic Conditions” (PLoS ONE, 2016).

Assay in all cases: purified protein
Holding throughout (type): biochemical, Geobacillus stearothermophilus

Substrate in series [1]: NC(=S)c1ccc[n+]([C@@H]2O[C@H](COP(=O)([O-])OP(=O)(O)OC[C@H]3O[C@@H](n4cnc5c(N)ncnc54)[C@H](O)[C@@H]3O)[C@@H](O)[C@H]2O)c1
The note with it: hydride donor NAD(P)H; anaerobic (argon).

Substrate in series [2]: NC(=S)c1ccc[n+]([C@@H]2O[C@H](COP(=O)(O)OP(=O)(O)OC[C@H]3O[C@@H](n4cnc5c(N)ncnc54)[C@H](OP(=O)(O)O)[C@@H]3O)[C@@H](O)[C@H]2O)c1
The note with it: hydride donor NAD(P)H; anaerobic (argon).

Substrate in series [3]: NC(=O)C1=CN([C@@H]2O[C@H](COP(=O)(O)OP(=O)(O)OC[C@H]3O[C@@H](n4cnc5c(N)ncnc54)[C@H](OP(=O)(O)O)[C@@H]3O)[C@@H](O)[C@H]2O)C=CC1
As to conditions: acceptor thio-NAD+; anaerobic (argon); 1x TBS pH 7.4, room temperature; pH 7.4.

Substrate in series [4]: NC(=O)C1=CN([C@@H]2O[C@H](COP(=O)(O)OP(=O)(O)OC[C@H]3O[C@@H](n4cnc5c(N)ncnc54)[C@H](O)[C@@H]3O)[C@@H](O)[C@H]2O)C=CC1
As to conditions: acceptor thio-NAD+; anaerobic (argon); 1x TBS pH 7.4, room temperature; pH 7.4.

B1: FMN-bound diaphorase (FMN-DI, DI, GsDI) (Geobacillus stearothermophilus) (protein)
chain: MTKVLYITAHPHDDTQSYSMAVGKAFIETYKQVHPDHEVIHLDLYKEYIPEIDVDVFSGWGKLRSGKSFEELSDEEKAKVGRMNELCEQFISADKYVFVTPMWNFSFPPVLKAYIDAVAVAGKTFKYTEQGPVGLLTDKKALHIQARGGFYSEGPAAEMEMGHRYLSVIMQFFGVPSFEGLFVEGHAAMPEKAEEIKANAIARAKDLAHTF
notes: full length from 636-bp DNA fragment, E. coli BL21 Star (DE3), plasmid pET20b-Gsdi, Ni-resin purified (C-terminal His tag implied by reverse primer)
By Km is commonly meant the substrate concentration at which the rate is half of its maximum. Broadly, the kcat is the maximal rate divided by the concentration of active sites. With B1, the Km in “purified protein [1]” stood at 917 µM; in the series “purified protein [2]”, 4813 µM; in “purified protein [3]”, 699 ± 49 µM; in “purified protein [4]”, 24 ± 3 µM. Moreover, the kcat is approximately 2.4 s⁻¹ in “purified protein [1]”, approximately 0.26 s⁻¹ in “purified protein [2]”, 1.93 ± 0.06 s⁻¹ in “purified protein [3]” and 1.64 ± 0.05 s⁻¹ in “purified protein [4]”.
